Measurements: article PMC9359109

Experiments:
[1] = target: HLA-B*27:05 class I heavy chain (HC), V5 tagged (human); test: non-reducing two-dimensional isoelectric focusing gel electrophoresis and immunoblot of immunoprecipitates; anti-tapasin immunoprecipitates resolved by charge and then by non-reducing SDS-PAGE, immunoblot with anti-V5
[2] = target: HLA-B*27:05 class I heavy chain (HC), V5 tagged (human); test: non-reducing two-dimensional isoelectric focusing gel electrophoresis and immunoblot; 1% NP40 lysates resolved by charge in the first dimension and by non-reducing SDS-PAGE in the second, immunoblot with anti-V5; monomers and dimers compared by pI
[3] = target: HLA-B*27:05 single chain trimer (SCT): NP 383-391 peptide - linker - human beta-2 microglobulin - linker - HLA-B*27:05 heavy chain - V5 (influenza virus | human); test: non-reducing two-dimensional isoelectric focusing gel electrophoresis and immunoblot of immunoprecipitates; anti-tapasin immunoprecipitates resolved by charge and then by non-reducing SDS-PAGE, immunoblot with anti-V5
[4] = target: HLA-B*27:05 single chain trimer (SCT): NP 383-391 peptide - linker - human beta-2 microglobulin - linker - HLA-B*27:05 heavy chain - V5 (influenza virus | human); test: non-reducing two-dimensional isoelectric focusing gel electrophoresis and immunoblot; 1% NP40 lysates resolved by charge in the first dimension and by non-reducing SDS-PAGE in the second, immunoblot with anti-V5; monomers and dimers compared by pI

Row | Substance | stoichiometry N [1] | stoichiometry N [2] | stoichiometry N [3] | stoichiometry N [4]
1 | HLA-B*27:05 class I heavy chain (HC), V5 tagged (natural protein) | 2 | 2 |  | 
2 | HLA-B*27:05 single chain trimer (SCT): NP 383-391 peptide - linker - human beta-2 microglobulin - linker - HLA-B*27:05 heavy chain - V5 (from UniProt P61769 21-119) (peptide-MHC) |  |  | 2 | 2
